Non-standard residues stand in square brackets, D forms with d. No end group written: not given here. Abu = CC[C@H](N)C(=O)O
B1: p53 peptide … (position 377, 10 amino acids) (peptide)
peptide: TSRHKKLMFK
B2: p53 peptide … (position 240, 10 amino acids) (peptide)
peptide: SSCMGGMNRR
B3: p53 peptide … (position 283, 9 amino acids) (peptide)
peptide: RTEEENLRK
B4: p53 peptide … (position 122, 11 amino acids) (peptide)
peptide: VTCTYSPALNK
B5: p53 peptide … (position 240, 9 amino acids) (peptide)
peptide: SSCMGGMNR
B6: p53 peptide … (position 156, 9 amino acids) (peptide)
peptide: RVRAMAIYK
B7: p53 peptide … (position 283, 10 amino acids) (peptide)
peptide: RTEEENLRKK
B8: p53 peptide TSSSPQPK (position 312, 8 amino acids) (peptide)
peptide: TSSSPQPK
B9: … p53.132 (peptide)
peptide: KMFCQLAKT
B10: 1371.24 SVBMGGMNK p53.240.V2B3K9 (peptide)
peptide: SV[Abu]MGGMNK
B11: 1371.16 BVYSPALNK p53.124.B1V2 (peptide)
peptide: BVYSPALNK
modifications: here or on the partner: B at position 1 is alpha-amino butyric acid (in place of cysteine)
B12: 1371.25 SVBMGGMNRK p53.240.V2B3K10 (peptide)
peptide: SV[Abu]MGGMNRK
B13: 1371.14 … p53.101.V2 (peptide)
peptide: KVYQGSYGFR
B14: 1329.09 … p53.113 (peptide)
peptide: FLHSGTAKSV
B15: 57.0096 … p53.102.F10 (peptide)
peptide: TYQGSYGFRF
B16: p53 peptide … (position 123, 10 amino acids) (peptide)
peptide: TCTYSPALNK
B17: p53.132B4V9 KMFBQLAKV (peptide)
peptide: KMF[Abu]QLAKV
B18: p53.65 … (10-mer) (peptide)
peptide: RMPEAAPPVA
B19: p53 peptide … (position 111) (peptide)
peptide: LGFLHSGTAK
B20: p53 peptide … (position 373) (peptide)
peptide: KGQSTSRHK
B21: p53 peptide … (position 112) (peptide)
peptide: GFLHSGTAK
B22: p53 peptide … (position 283) (peptide)
peptide: RTEEENLRK
B23: p53 peptide … (position 156) (peptide)
peptide: RVRAMAIYK
B24: p53 peptide … (position 283) (peptide)
peptide: RTEEENLRKK
B25: p53 peptide … (position 240) (peptide)
peptide: SSCMGGMNR
B26: p53 peptide … (position 377) (peptide)
peptide: TSRHKKLMFK
B27: p53 peptide … (position 107) (peptide)
peptide: YGFRLGFLH
B28: p53 peptide TSSSPQPK (position 312) (peptide)
peptide: TSSSPQPK
B29: p53 peptide … (position 240) (peptide)
peptide: SSCMGGMNRR
B30: p53 peptide … (position 123) (peptide)
peptide: TCTYSPALNK
B31: p53 peptide … (position 122) (peptide)
peptide: VTCTYSPALNK

What follows are binders tested against HLA-A*0301 (Human) (assay: not given). Conditions: remark: other sources report otherwise.

**Q.** B1 was tested. Which binding affinity ratio (IC50 of standard peptide/IC50 of test peptide) did it give?
**A.** 0.05

**Q.** For B2, which binding affinity ratio (IC50 of standard peptide/IC50 of test peptide) is on record?
**A.** 0.0001

**Q.** How did the binding affinity ratio (IC50 of standard peptide/IC50 of test peptide) turn out when B3 was run?
**A.** 0.0015

**Q.** How did the binding affinity ratio (IC50 of standard peptide/IC50 of test peptide) turn out when B4 was run?
**A.** 0.07

**Q.** Which binding affinity ratio (IC50 of standard peptide/IC50 of test peptide) does the source give for B5 here?
**A.** 0.02

**Q.** B6 was tested. Which binding affinity ratio (IC50 of standard peptide/IC50 of test peptide) did it give?
**A.** 1.5

**Q.** Which binding affinity ratio (IC50 of standard peptide/IC50 of test peptide) does the source give for B7 here?
**A.** 3.3

Each binder was assayed against HLA-A*1101 (Human) (assay: not given). Conditions: remark: other sources report otherwise.

**Q.** With B8 as the binder, how does the binding affinity ratio (IC50 of standard peptide/IC50 of test peptide) read?
**A.** 0.0019

**Q.** With B1 as the binder, how does the binding affinity ratio (IC50 of standard peptide/IC50 of test peptide) read?
**A.** 0.0052

**Q.** How did the binding affinity ratio (IC50 of standard peptide/IC50 of test peptide) turn out when B2 was run?
**A.** 0.086

**Q.** Which binding affinity ratio (IC50 of standard peptide/IC50 of test peptide) does the source give for B3 here?
**A.** 0.091

**Q.** For B4, which binding affinity ratio (IC50 of standard peptide/IC50 of test peptide) is on record?
**A.** 0.12

**Q.** B5 was tested. Which binding affinity ratio (IC50 of standard peptide/IC50 of test peptide) did it give?
**A.** 1.4

**Q.** For B6, which binding affinity ratio (IC50 of standard peptide/IC50 of test peptide) is on record?
**A.** 0.73

**Q.** With B7 as the binder, how does the binding affinity ratio (IC50 of standard peptide/IC50 of test peptide) read?
**A.** 0.008

What follows are binders tested against HLA-A*3301 (Human) (assay: not given). Conditions: remark: other sources report otherwise.

**Q.** Which binding affinity ratio (IC50 of standard peptide/IC50 of test peptide) does the source give for B3 here?
**A.** 0.0006

**Q.** With B6 as the binder, how does the binding affinity ratio (IC50 of standard peptide/IC50 of test peptide) read?
**A.** 0.0063

What follows are binders tested against HLA-A*6801 (Human) (assay: not given). Conditions: remark: other sources report otherwise.

**Q.** For B3, which binding affinity ratio (IC50 of standard peptide/IC50 of test peptide) is on record?
**A.** 0.0001

**Q.** B4 was tested. Which binding affinity ratio (IC50 of standard peptide/IC50 of test peptide) did it give?
**A.** 0.0068

**Q.** B6 was tested. Which binding affinity ratio (IC50 of standard peptide/IC50 of test peptide) did it give?
**A.** 0.003

The binders below were run against HLA-A*3101 (Human) (assay: not given). Conditions: remark: other sources report otherwise.

**Q.** Which binding affinity ratio (IC50 of standard peptide/IC50 of test peptide) does the source give for B3 here?
**A.** 0.0002

**Q.** For B6, which binding affinity ratio (IC50 of standard peptide/IC50 of test peptide) is on record?
**A.** 3.7

Each binder was assayed against HLA-A*0203 (human) (assay: competition with 125I probe peptide, purified HLA class I). Conditions: remark: other sources report otherwise.

**Q.** B9 was tested. Which IC50 did it give?
**A.** 19.6 nM

Each binder was assayed against HLA-A*1101 (human) in the same assay as above. Conditions: remark: other sources report otherwise.

**Q.** Which IC50 does the source give for B10 here?
**A.** 17.1 nM

**Q.** How did the IC50 turn out when B11 was run?
**A.** 12.8 nM

**Q.** B12 was tested. Which IC50 did it give?
**A.** 75 nM

Each binder was assayed against HLA-A*6801 (human) in the same assay as above. Conditions: remark: other sources report otherwise.

**Q.** B10 was tested. Which IC50 did it give?
**A.** 29.6 nM

**Q.** With B11 as the binder, how does the IC50 read?
**A.** 500 nM

**Q.** Which IC50 does the source give for B12 here?
**A.** 17 nM

What follows are binders tested against HLA-A*3301 (human) in the same assay as above. Conditions: remark: other sources report otherwise.

**Q.** How did the IC50 turn out when B13 was run?
**A.** 10 µM

What follows are binders tested against HLA-A*3101 (human) in the same assay as above. Conditions: remark: other sources report otherwise.

**Q.** With B10 as the binder, how does the IC50 read?
**A.** 9 µM

Each binder was assayed against HLA-A*0206 (human) in the same assay as above. Conditions: remark: other sources report otherwise.

**Q.** For B9, which IC50 is on record?
**A.** 92.5 nM

Each binder was assayed against HLA-A*6802 (human) in the same assay as above. Conditions: remark: other sources report otherwise.

**Q.** B14 was tested. Which IC50 did it give?
**A.** 80 µM

Each binder was assayed against HLA-A*0301 (human) in the same assay as above. Conditions: remark: other sources report otherwise.

**Q.** How did the IC50 turn out when B10 was run?
**A.** 12.5 nM

What follows are binders tested against HLA-A*2401 (human) in the same assay as above. Conditions: not given.

**Q.** B15 was tested. Which IC50 did it give?
**A.** 30 nM

Target: HLA-A*0301 (Human)
Assay: not given
Conditions: remark: other sources report otherwise
Remark: another data set of the same source

**Q.** For B1, which binding affinity ratio (IC50 of standard peptide/IC50 of test peptide) is on record?
**A.** 0.05

**Q.** How did the binding affinity ratio (IC50 of standard peptide/IC50 of test peptide) turn out when B16 was run?
**A.** 0.0056

**Q.** For B2, which binding affinity ratio (IC50 of standard peptide/IC50 of test peptide) is on record?
**A.** 0.0001

**Q.** With B4 as the binder, how does the binding affinity ratio (IC50 of standard peptide/IC50 of test peptide) read?
**A.** 0.07

**Q.** B5 was tested. Which binding affinity ratio (IC50 of standard peptide/IC50 of test peptide) did it give?
**A.** 0.02

These binders were tested against HLA-A*0203 (Human) (assay: competition vs 125I probe, purified HLA). Conditions: remark: other sources report otherwise.

**Q.** Which IC50 does the source give for B17 here?
**A.** 9.1 nM

The binders below were run against HLA-A*0206 (Human) (assay: competition vs 125I probe, purified HLA). Conditions: remark: other sources report otherwise.

**Q.** For B17, which IC50 is on record?
**A.** 37 nM

**Q.** B18 was tested. Which IC50 did it give?
**A.** 841 nM

Target: HLA-A*0301 (Human)
Assay: not given
Conditions: remark: other sources report otherwise
Remark: another data set of the same source

**Q.** B19 was tested. Which binding affinity ratio (IC50 of standard peptide/IC50 of test peptide) did it give?
**A.** 0.0001

**Q.** B20 was tested. Which binding affinity ratio (IC50 of standard peptide/IC50 of test peptide) did it give?
**A.** 0.0014

**Q.** Which binding affinity ratio (IC50 of standard peptide/IC50 of test peptide) does the source give for B21 here?
**A.** 0.0014

**Q.** For B22, which binding affinity ratio (IC50 of standard peptide/IC50 of test peptide) is on record?
**A.** 0.0015

**Q.** Which binding affinity ratio (IC50 of standard peptide/IC50 of test peptide) does the source give for B23 here?
**A.** 1.5

**Q.** For B24, which binding affinity ratio (IC50 of standard peptide/IC50 of test peptide) is on record?
**A.** 3.3

These binders were tested against HLA-A*1101 (human) (assay: inhibition of radiolabeled probe peptide binding to purified HLA, gel filtration). Conditions: remark: other sources report otherwise.

**Q.** How did the binding affinity ratio to standard peptide turn out when B25 was run?
**A.** 1.4

**Q.** B26 was tested. Which binding affinity ratio to standard peptide did it give?
**A.** 0.0052

**Q.** With B27 as the binder, how does the binding affinity ratio to standard peptide read?
**A.** 0.26

**Q.** B28 was tested. Which binding affinity ratio to standard peptide did it give?
**A.** 0.0019

**Q.** B19 was tested. Which binding affinity ratio to standard peptide did it give?
**A.** 0.0002

**Q.** B20 was tested. Which binding affinity ratio to standard peptide did it give?
**A.** 0.0002

**Q.** How did the binding affinity ratio to standard peptide turn out when B21 was run?
**A.** 0.0001

**Q.** With B29 as the binder, how does the binding affinity ratio to standard peptide read?
**A.** 0.086

**Q.** With B22 as the binder, how does the binding affinity ratio to standard peptide read?
**A.** 0.091

**Q.** Which binding affinity ratio to standard peptide does the source give for B30 here?
**A.** 0.012

**Q.** With B23 as the binder, how does the binding affinity ratio to standard peptide read?
**A.** 0.73

**Q.** For B31, which binding affinity ratio to standard peptide is on record?
**A.** 0.12
